Assay results as given in patent publication US20260015399A1 (Boehringer Ingelheim, published 2026).
*1 amine or outer side, *2 acyl side, *3 side chain or, on linkers, in order; H or OH if unused. Side-chain parts run from the residue outwards. The star is where a group is joined. C18 diacid = O=C(O)CCCCCCCCCCCCCCCCC(=O)*; γGlu = O=C(O)[C@H](CCC(=O)[*:2])N[*:1]; Isovaleryl = CC(C)CC(=O)*; Ahx = NCCCCCC(=O)O

T1: human NPY2 receptor (human, UniProt P49146 1-381)
T1 construct: whole, on cells; also called hNPY2-R; hNPY2R
T1 sequence (looked up): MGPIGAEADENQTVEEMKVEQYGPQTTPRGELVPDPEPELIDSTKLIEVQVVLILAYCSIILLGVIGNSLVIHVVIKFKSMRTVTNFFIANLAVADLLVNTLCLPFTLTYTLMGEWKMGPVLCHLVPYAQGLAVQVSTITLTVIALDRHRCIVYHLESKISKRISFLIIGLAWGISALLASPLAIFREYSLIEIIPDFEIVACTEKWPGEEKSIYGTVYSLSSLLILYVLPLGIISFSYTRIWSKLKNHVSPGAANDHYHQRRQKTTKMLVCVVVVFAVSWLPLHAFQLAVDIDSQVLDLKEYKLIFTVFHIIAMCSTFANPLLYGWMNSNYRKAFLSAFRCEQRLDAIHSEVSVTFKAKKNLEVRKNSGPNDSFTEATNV

T2: human NPY5 receptor (human, UniProt Q15761 1-445)
T2 sequence (looked up): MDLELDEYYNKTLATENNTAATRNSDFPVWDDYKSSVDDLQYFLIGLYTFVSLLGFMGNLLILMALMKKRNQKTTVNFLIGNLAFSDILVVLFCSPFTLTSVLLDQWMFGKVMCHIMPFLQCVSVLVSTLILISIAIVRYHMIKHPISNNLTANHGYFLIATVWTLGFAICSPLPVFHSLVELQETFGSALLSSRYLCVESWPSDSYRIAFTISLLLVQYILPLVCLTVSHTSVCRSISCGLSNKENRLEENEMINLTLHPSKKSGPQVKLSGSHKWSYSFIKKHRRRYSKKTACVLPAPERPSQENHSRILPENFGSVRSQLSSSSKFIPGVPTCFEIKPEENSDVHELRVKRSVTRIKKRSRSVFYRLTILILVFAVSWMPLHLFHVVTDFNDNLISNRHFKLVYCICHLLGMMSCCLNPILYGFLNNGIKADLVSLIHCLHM

T3: human NPY1 receptor (human, UniProt P25929 1-384)
T3 sequence (looked up): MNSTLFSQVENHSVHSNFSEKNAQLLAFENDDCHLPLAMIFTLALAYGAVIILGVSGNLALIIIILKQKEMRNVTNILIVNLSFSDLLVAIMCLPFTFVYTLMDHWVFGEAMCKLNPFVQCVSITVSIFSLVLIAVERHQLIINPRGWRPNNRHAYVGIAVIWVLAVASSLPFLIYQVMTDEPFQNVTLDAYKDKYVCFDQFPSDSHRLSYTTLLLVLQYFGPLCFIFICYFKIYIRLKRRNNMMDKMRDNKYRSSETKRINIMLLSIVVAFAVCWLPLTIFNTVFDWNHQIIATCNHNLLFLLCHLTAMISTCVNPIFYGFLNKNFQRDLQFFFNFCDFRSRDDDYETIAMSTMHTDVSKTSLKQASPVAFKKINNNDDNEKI

B1: Compound 176 (peptide)
peptide: Isovaleryl-APEK([Ahx-γGlu-C18 diacid])PEEDATPEEIQRYYVSLRHYYNWLTRQRY-NH2
SMILES: CC[C@H](C)[C@H](NC(=O)[C@H](CCC(=O)O)NC(=O)[C@H](CCC(=O)O)NC(=O)[C@@H]1CCCN1C(=O)[C@@H](NC(=O)[C@H](C)NC(=O)[C@H](CC(=O)O)NC(=O)[C@H](CCC(=O)O)NC(=O)[C@H](CCC(=O)O)NC(=O)[C@@H]1CCCN1C(=O)[C@H](CCCCNC(=O)CCCCCNC(=O)CC[C@H](NC(=O)CCCCCCCCCCCCCCCCC(=O)O)C(=O)O)NC(=O)[C@H](CCC(=O)O)NC(=O)[C@@H]1CCCN1C(=O)[C@H](C)NC(=O)CC(C)C)[C@@H](C)O)C(=O)N[C@@H](CCC(N)=O)C(=O)N[C@@H](CCCNC(=N)N)C(=O)N[C@@H](Cc1ccc(O)cc1)C(=O)N[C@@H](Cc1ccc(O)cc1)C(=O)N[C@H](C(=O)N[C@@H](CO)C(=O)N[C@@H](CC(C)C)C(=O)N[C@@H](CCCNC(=N)N)C(=O)N[C@@H](Cc1c[nH]cn1)C(=O)N[C@@H](Cc1ccc(O)cc1)C(=O)N[C@@H](Cc1ccc(O)cc1)C(=O)N[C@@H](CC(N)=O)C(=O)N[C@@H](Cc1c[nH]c2ccccc12)C(=O)N[C@@H](CC(C)C)C(=O)N[C@H](C(=O)N[C@@H](CCCNC(=N)N)C(=O)N[C@@H](CCC(N)=O)C(=O)N[C@@H](CCCNC(=N)N)C(=O)N[C@@H](Cc1ccc(O)cc1)C(N)=O)[C@@H](C)O)C(C)C
B2: Compound 40 (peptide)
peptide: Isovaleryl-APEK([Ahx-γGlu-C18 diacid])PEADASPEEIQRYYIALRHYYNWLTRQRY-NH2
B3: Compound 7 (peptide)
peptide: Isovaleryl-APEK([Ahx-γGlu-C18 diacid])PEADATPEEIQRYYVSLRHYYNWLTRQRY-NH2

The binders below were run against T1, human NPY2 receptor (assay: RLB, apparent Ki of filtrate after incubation at pH 6.1-6.2 (assumed 10 mg/ml)).
Experimental: (§1) The filtration RLB assay was carried out in 96-well plates in a final volume of 100 μl per well. Freeze-dried test peptides were dissolved in 100% dimethyl sulfoxide (DMSO) to stock solutions of 1 mM and serial dilutions were performed in assay buffer (50 mM HEPES, 5 mM MgCl₂, 1 mM CaCl₂), pH 7.4) containing 0.2% ovalbumin. […] Next, 80 μL membranes (HTS066M, ChemiSCREEN™ Human Neuropeptide Y2 Receptor Membrane Preparation, CHEMICON) were added to each well to give a final protein concentration of 0.5 μg/well. The plates were sealed and incubated at room temperature for 2 hours in a plate shaker set at 400 rpm. The incubation was stopped by vacuum filtration onto 0.5% polyethylene amine (PEI) presoaked GF/C filters using a 96-well FilterMate™ harvester (Perkin Elmer) followed by four washes with 300 μl/well ice-cold wash buffer (50 mM HEPES, 500 mM NaCl, pH7.4). Filter plates were then dried for 60 min at room temperature and the bottom of the plates was sealed with backing tape UniFilter-96. Finally, 50 μl/well scintillation counter cocktail (Microscint20, Packard) was added and the radioactivity was counted in the Packard TopCount NXT scintillation counter. IC₅₀ values (the half maximal inhibitory concentration of the agonist) were calculated by nonlinear regression analysis of sigmoidal dose-response curves. […]
A Ki of 3.9 nM was found for B1 in this work.

Each binder was assayed against T1, human NPY2 receptor (assay: RLB, apparent Ki of filtrate after incubation at pH 7.1-7.2 (assumed 10 mg/ml)).
Experimental: as §1
A Ki of 7.3 nM was found for B2 in this work. A Ki of 4 nM was found for B1 in this work.

Each binder was assayed against T1, human NPY2 receptor (assay: ratio of apparent Ki, pH 6 filtrate vs pH 7 filtrate).
Experimental: as §1
With B1 the “RLB ratio (RLB6/RLB7)” value was 1.

What follows are binders tested against T2, human NPY5 receptor (assay: cell-based or functional assay).
With B3 the “EC50, HTRF cAMP Gi assay” value was greater than 5000 nM. In the case of B2, the “EC50, HTRF cAMP Gi assay” value is reported as greater than 5000 nM. For B1, the “EC50, HTRF cAMP Gi assay” value was greater than 5000 nM.

Each binder was assayed against T1, human NPY2 receptor (assay: cell-based or functional assay).
With B3 the “EC50, HTRF cAMP Gi assay” value was 0.143 nM. With B2 the “EC50, HTRF cAMP Gi assay” value was 0.122 nM. In the case of B1, the “EC50, HTRF cAMP Gi assay” value is reported as 0.168 nM.

The binders below were run against human NPY4 receptor (human, UniProt P50391 1-375) (assay: cell-based or functional assay).
human NPY4 receptor, sequence (P50391 whole entry): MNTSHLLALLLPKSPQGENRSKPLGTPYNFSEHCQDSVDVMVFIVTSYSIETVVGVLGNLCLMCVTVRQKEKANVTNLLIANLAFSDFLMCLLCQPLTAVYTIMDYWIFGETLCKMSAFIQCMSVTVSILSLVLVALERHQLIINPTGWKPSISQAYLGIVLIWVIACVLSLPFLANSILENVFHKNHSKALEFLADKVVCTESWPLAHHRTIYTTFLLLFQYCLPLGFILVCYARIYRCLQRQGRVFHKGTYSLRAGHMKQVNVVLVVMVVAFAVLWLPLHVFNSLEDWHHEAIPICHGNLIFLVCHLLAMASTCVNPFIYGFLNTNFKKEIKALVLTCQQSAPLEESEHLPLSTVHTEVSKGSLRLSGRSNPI
With B3 the “EC50, HTRF cAMP Gi assay” value was greater than 5000 nM. In the case of B2, the “EC50, HTRF cAMP Gi assay” value is reported as greater than 5000 nM. With B1 the “EC50, HTRF cAMP Gi assay” value was greater than 5000 nM.

What follows are binders tested against T3, human NPY1 receptor (assay: cell-based or functional assay).
For B3, the “EC50, HTRF cAMP Gi assay” value was greater than 5000 nM. B2 was tested, and the “EC50, HTRF cAMP Gi assay” value was greater than 5000 nM. For B1, the “EC50, HTRF cAMP Gi assay” value was greater than 5000 nM.

These binders were tested against T1, human NPY2 receptor (assay: RLB (125I-PYY(1-36) displacement, hNPY2R membranes), peptide from DMSO stock).
Experimental: as §1
A Ki of 8.7 nM was found for B1 in this work.

These binders were tested against T1, human NPY2 receptor (assay: RLB, apparent Ki of filtrate after incubation at pH 8.1-8.2 (assumed 10 mg/ml)).
Experimental: The filtration RLB assay was carried out in 96-well plates in a final volume of 100 μl per well. Freeze-dried test peptides were dissolved in 100% dimethyl sulfoxide (DMSO) to stock solutions of 1 mM and serial dilutions were performed in assay buffer (50 mM HEPES, 5 mM MgCl₂, 1 mM CaCl₂), pH 7.4) containing 0.2% ovalbumin. […] Next, 80 μL membranes (HTS066M, ChemiSCREEN™ Human Neuropeptide Y2 Receptor Membrane Preparation, CHEMICON) were added to each well to give a final protein concentration of 0.5 μg/well. The plates were sealed and incubated at room temperature for 2 hours in a plate shaker set at 400 rpm. The incubation was stopped by vacuum filtration onto 0.5% polyethylene amine (PEI) presoaked GF/C filters using a 96-well FilterMate™ harvester (Perkin Elmer) followed by four washes with 300 μl/well ice-cold wash buffer (50 mM HEPES, 500 mM NaCl, pH7.4). Filter plates were then dried for 60 min at room temperature and the bottom of the plates was sealed with backing tape UniFilter-96. Finally, 50 μl/well scintillation counter cocktail (Microscint20, Packard) was added and the radioactivity was counted in the Packard TopCount NXT scintillation counter. IC₅₀ values (the half maximal inhibitory concentration of the agonist) were calculated by nonlinear regression analysis of sigmoidal dose-response curves.
The peptide was (partially) dissolved by shaking the filter unit horizontally at approx. 400 rpm for 2 hours at room temperature. The sample was filtered to remove any insoluble particles.
A Ki of 3.1 nM was found for B3 in this work. A Ki of 3.8 nM was found for B2 in this work. A Ki of 5.7 nM was found for B1 in this work.

The binders below were run against T1, human NPY2 receptor (assay: RLB: displacement of 125I-PYY(1-36) from hNPY2R membranes).
A Ki of 1.04 nM was found for B3 in this work. A Ki of 0.67 nM was found for B2 in this work. A Ki of 1.48 nM was found for B1 in this work.

The binders below were run against T1, human NPY2 receptor (assay: ratio of apparent Ki, pH 8 filtrate vs pH 7 filtrate).
Experimental: as §1
In the case of B1, the “RLB ratio (RLB8/RLB7)” value is reported as 1.4.
